Laboratory results published in the Human Domainome abundance scans (Beltran et al. 2025).
± gives the uncertainty stated by the source.

B1: F-BAR and double SH3 domains protein 1, residues 467 to 528; numbered along this chain, Q86WN1 (parent)
chain: RALPCPAHVVFRYQAGREDELTITEGEWLEVIEEGDADEWVKARNQHGEVGFVPERYLNFPD

Variants of: B1
Test: abundance fitness (aPCA) (normalised: wild type 0, dead -1); higher = more abundant; growth selection in yeast, the domain comes from the species named
Conditions: Homo sapiens

| Variant | abundance fitness |
| --- | --- |
| W28I | 0.026 ± 0.086 |
| W28V | 0.107 ± 0.071 |
| W28K | -0.004 ± 0.1 |
| W28M | -0.024 ± 0.057 |
| W28T | -0.053 ± 0.081 |
| W28E | -0.081 ± 0.14 |
| W28Q | 0.026 ± 0.063 |
| W28S | -0.014 ± 0.054 |
| W28P | -0.113 ± 0.089 |
| W28F | 0.134 ± 0.086 |
| W28D | -0.046 ± 0.1 |
| W28H | 0.01 ± 0.1 |
| W28R | 0.039 ± 0.041 |
| W28G | -0.217 ± 0.058 |
| E18L | -0.23 ± 0.044 |
| E18C | -0.076 ± 0.086 |
| E18T | -0.013 ± 0.071 |
| E18G | -0.072 ± 0.047 |
| E18Y | -0.233 ± 0.079 |
| E18Q | 0.01 ± 0.079 |
| E18R | -0.134 ± 0.039 |

| Variant | abundance fitness |
| --- | --- |
| E18F | -0.28 ± 0.12 |
| E18P | -0.062 ± 0.067 |
| E18H | -0.531 ± 0.34 |
| E18N | -0.086 ± 0.091 |
| E18I | -0.389 ± 0.16 |
| E18D | 0.082 ± 0.1 |
| E18M | -0.245 ± 0.087 |
| E18K | -0.238 ± 0.086 |
| E18S | -0.127 ± 0.048 |
| E18A | -0.228 ± 0.073 |
| E18V | -0.134 ± 0.049 |
| E33Q | 0.051 ± 0.11 |
| E33N | -0.183 ± 0.095 |
| E33S | 0.063 ± 0.048 |
| E33H | -0.193 ± 0.077 |
| E33T | -0.305 ± 0.071 |
| E33G | 0.071 ± 0.078 |
| E33F | -0.725 ± 0.12 |
| E33A | -0.048 ± 0.07 |
| E33W | -0.629 ± 0.16 |
| E33I | -0.785 ± 0.21 |

| Variant | abundance fitness |
| --- | --- |
| E33M | -0.266 ± 0.13 |
| E33V | -0.587 ± 0.086 |
| E33C | -0.05 ± 0.09 |
| E33D | -0.156 ± 0.16 |
| E33K | -0.344 ± 0.15 |
| D19T | 0.051 ± 0.059 |
| D19C | 0.087 ± 0.099 |
| D19K | -0.05 ± 0.063 |
| D19F | -0.006 ± 0.058 |
| D19W | -0.426 ± 0.084 |
| D19M | -0.12 ± 0.061 |
| D19I | -0.095 ± 0.073 |
| D19R | -0.048 ± 0.039 |
| D19Q | 0.034 ± 0.079 |
| D19Y | -0.04 ± 0.076 |
| D19P | -0.396 ± 0.087 |
| D19A | 0.092 ± 0.061 |
| D19N | -0.028 ± 0.084 |
| D19V | 0.103 ± 0.056 |
| D19H | -0.013 ± 0.11 |
| D19L | -0.086 ± 0.037 |

| Variant | abundance fitness |
| --- | --- |
| D19G | 0.159 ± 0.067 |
| D19S | 0.044 ± 0.039 |
| T24Q | 0.051 ± 0.082 |
| T24H | 0.036 ± 0.12 |
| T24L | -0.081 ± 0.046 |
| T24I | -0.063 ± 0.12 |
| T24N | -0.212 ± 0.15 |
| T24R | -0.037 ± 0.059 |
| T24V | -0.041 ± 0.053 |
| T24A | -0.117 ± 0.055 |
| T24K | 0.042 ± 0.077 |
| T24G | -0.231 ± 0.069 |
| T24P | -0.879 ± 0.12 |
| T24W | -0.25 ± 0.076 |
| T24Y | -0.153 ± 0.096 |
| T24F | -0.247 ± 0.082 |
| T24D | 0.087 ± 0.088 |
| T24S | -0.083 ± 0.051 |
| T24E | 0.105 ± 0.082 |
| T24M | -0.02 ± 0.063 |
